Assay [1] concerns the target GFP::CDK5RAP2 isoform B, full length, wild type (assembled into micron-scale scaffolds with anti-CM2 IgM) (human) (UniProt Q96SN8). As to the kind of experiment: partitioning into in vitro scaffolds (confocal fluorescence microscopy); 4-component asters: 167 nM GFP::CDK5RAP2, 33 nM mBFP::γ-TuRCs, 33 nM mCherry::HSET, 13 µM HiLyte-647-labeled α/β-tubulin; 50 mM KCl, 25 mM HEPES pH 7.4, IgM+; compared with 3-component reactions without HSET.

In assay [2] the target is T1, GFP::CDK5RAP2 isoform B, full length, wild type (assembled into micron-scale scaffolds with anti-CM2 IgM) (human, UniProt Q96SN8-4 1-1814).
T1 construct: CDK5RAP2 (CEP215) isoform B, human, Protein ID Q96SN8-4, lacking a.a; 1576-1654 of the longest isoform; full length; In the assays the protein stood as micron-scale assemblies nucleated by an anti-CM2 IgM; also called CEP215; GFP::CDK5RAP2(WT); source: SF9 insect cells (baculovirus), purified (MBP selector beads, PreScission cleavage, Ni-NTA to remove the protease)
As to the kind of experiment: partitioning into in vitro scaffolds (confocal fluorescence microscopy); 120 nM GFP::CDK5RAP2 assembled with anti-CM2 IgM, 50 nM mCherry, mCherry::HSET or mCherry::HSET(ΔIDR); 50 mM KCl, 25 mM HEPES; partition coefficient of mCherry signal. The settings on record: both partners purified.

The source of these data is publication PMC12273628, “In vitro reconstitution of a minimal human centrosome scaffold capable of forming and clustering microtubule asters” (Journal of Cell Science, 2025).

T1 sequence (Q96SN8 other isoform, or with tags, fused parts or gaps): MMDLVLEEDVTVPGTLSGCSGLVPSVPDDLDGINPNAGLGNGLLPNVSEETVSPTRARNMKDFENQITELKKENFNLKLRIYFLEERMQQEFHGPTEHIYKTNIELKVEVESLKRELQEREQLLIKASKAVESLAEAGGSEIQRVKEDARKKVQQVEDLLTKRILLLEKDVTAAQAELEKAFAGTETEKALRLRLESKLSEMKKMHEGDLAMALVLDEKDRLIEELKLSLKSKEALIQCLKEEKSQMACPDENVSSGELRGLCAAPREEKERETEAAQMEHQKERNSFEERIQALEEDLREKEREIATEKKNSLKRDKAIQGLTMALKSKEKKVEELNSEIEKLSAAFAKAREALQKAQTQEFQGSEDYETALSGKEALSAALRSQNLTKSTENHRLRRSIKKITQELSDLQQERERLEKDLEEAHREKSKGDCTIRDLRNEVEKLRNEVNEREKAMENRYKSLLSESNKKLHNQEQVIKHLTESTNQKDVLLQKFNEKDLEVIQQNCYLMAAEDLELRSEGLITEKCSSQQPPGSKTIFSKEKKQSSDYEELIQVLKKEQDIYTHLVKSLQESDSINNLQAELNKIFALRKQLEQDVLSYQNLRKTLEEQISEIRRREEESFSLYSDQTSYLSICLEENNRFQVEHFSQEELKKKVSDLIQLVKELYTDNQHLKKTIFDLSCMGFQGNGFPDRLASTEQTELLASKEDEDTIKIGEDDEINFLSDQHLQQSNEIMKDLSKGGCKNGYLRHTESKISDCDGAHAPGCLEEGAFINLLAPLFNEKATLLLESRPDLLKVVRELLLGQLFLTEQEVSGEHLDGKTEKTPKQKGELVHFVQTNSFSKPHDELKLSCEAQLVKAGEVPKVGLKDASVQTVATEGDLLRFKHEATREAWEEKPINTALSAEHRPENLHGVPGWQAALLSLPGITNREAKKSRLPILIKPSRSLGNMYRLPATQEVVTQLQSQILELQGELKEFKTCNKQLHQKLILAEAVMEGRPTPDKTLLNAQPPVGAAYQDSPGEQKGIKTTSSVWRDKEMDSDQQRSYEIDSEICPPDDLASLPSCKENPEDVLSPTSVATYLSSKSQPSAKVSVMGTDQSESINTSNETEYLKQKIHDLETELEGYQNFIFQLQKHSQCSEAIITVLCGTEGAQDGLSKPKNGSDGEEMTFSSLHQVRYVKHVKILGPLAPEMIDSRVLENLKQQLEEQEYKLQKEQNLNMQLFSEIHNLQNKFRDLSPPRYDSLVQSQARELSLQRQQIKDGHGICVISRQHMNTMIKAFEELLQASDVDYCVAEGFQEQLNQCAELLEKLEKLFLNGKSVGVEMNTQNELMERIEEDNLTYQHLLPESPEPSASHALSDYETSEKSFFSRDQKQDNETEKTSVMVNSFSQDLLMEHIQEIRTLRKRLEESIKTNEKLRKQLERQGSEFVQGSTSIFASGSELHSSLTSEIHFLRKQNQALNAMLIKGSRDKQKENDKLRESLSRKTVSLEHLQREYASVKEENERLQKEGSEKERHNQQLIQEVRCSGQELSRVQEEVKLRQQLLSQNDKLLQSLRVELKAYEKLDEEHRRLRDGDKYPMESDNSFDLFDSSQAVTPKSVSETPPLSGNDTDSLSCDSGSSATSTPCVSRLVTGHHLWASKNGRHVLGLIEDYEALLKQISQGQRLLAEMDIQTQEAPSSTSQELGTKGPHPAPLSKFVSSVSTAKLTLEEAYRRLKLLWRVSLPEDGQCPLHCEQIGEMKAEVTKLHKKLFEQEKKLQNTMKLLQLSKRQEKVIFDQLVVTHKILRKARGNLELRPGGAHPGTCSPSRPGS
Chain of GFP::CDK5RAP2 isoform B, full length, wild type (assembled into micron-scale scaffolds with anti-CM2 IgM) (human) (Q96SN8 other isoform, or with tags, fused parts or gaps): as above

For the molecule “human γ-tubulin ring complex tagged with blue fluorescent protein (mBFP::γ-TuRC) (from UniProt P23258 1-451)”, the fold more γ-TuRC recruited with mCherry::HSET than without in assay [1] came to 1.4 fold.

B1: mCherry::HSET, full length, wild type (natural protein, human, UniProt Q9BW19 1-673, looked up)
chain: MDPQRSPLLEVKGNIELKRPLIKAPSQLPLSGSRLKRRPDQMEDGLEPEKKRTRGLGATTKITTSHPRVPSLTTVPQTQGQTTAQKVSKKTGPRCSTAIATGLKNQKPVPAVPVQKSGTSGVPPMAGGKKPSKRPAWDLKGQLCDLNAELKRCRERTQTLDQENQQLQDQLRDAQQQVKALGTERTTLEGHLAKVQAQAEQGQQELKNLRACVLELEERLSTQEGLVQELQKKQVELQEERRGLMSQLEEKERRLQTSEAALSSSQAEVASLRQETVAQAALLTEREERLHGLEMERRRLHNQLQELKGNIRVFCRVRPVLPGEPTPPPGLLLFPSGPGGPSDPPTRLSLSRSDERRGTLSGAPAPPTRHDFSFDRVFPPGSGQDEVFEEIAMLVQSALDGYPVCIFAYGQTGSGKTFTMEGGPGGDPQLEGLIPRALRHLFSVAQELSGQGWTYSFVASYVEIYNETVRDLLATGTRKGQGGECEIRRAGPGSEELTVTNARYVPVSCEKEVDALLHLARQNRAVARTAQNERSSRSHSVFQLQISGEHSSRGLQCGAPLSLVDLAGSERLDPGLALGPGERERLRETQAINSSLSTLGLVIMALSNKESHVPYRNSKLTYLLQNSLGGSAKMLMFVNISPLEENVSESLNSLRFASKVNQCVIGTAQANRK
notes: HSET (KifC1), kinesin-14 family motor, human, full length; also called KifC1; mCherry::HSET(WT); source: SF9 insect cells (baculovirus), purified (Ni-NTA)
Take B1: the binding result in assay [2] was “binds”.
